The values that follow come from patent EP4803150A2 (Lyvgen Biopharma Holdings Limited, dated 2026).

The target in assay [1] is T1, CD3 (human).
T1 chain: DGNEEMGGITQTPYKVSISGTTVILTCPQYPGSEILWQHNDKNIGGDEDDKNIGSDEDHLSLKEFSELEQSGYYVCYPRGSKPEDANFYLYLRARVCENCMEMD
The assay can be described thus: CD3 binding as in Example 2 (ELISA or FCM). In general terms: An ELISA detects its analyte on a solid surface through an enzyme-linked reagent.

Assay [2] deals with T2, CD137 (human, UniProt Q07011 24-186).
T2 construct: Whole on GS-H2-huCD137 reporter cells in the reporter assays; also called 4-1BB
The assay can be described thus: FCM or ELISA, graded.

Where a chain is given by its changes, count along the chain named.

In general, EC50 refers to the midpoint of the concentration-response curve. Read a low EC50 as higher potency in that assay.

B1: Ly1966 (multi-specific antibody)
chain 1: QVQLQQSGAELVRPGSSVKISCKASGYAFSSYWMNWVKQRPGQGLEWIGQIWPGDGDTNYNGKFKGKATLTADESSSTAYMQLSSLASEDSAVYFCARRETTTVGRYYYAMDYWGQGTTVTVSSASTKGPSVFPLAPSSKSTSGGTAALGCLVKDYFPEPVTVSWNSGALTSGVHTFPAVLQSSGLYSLSSVVTVPSSSLGTQTYICNVNHKPSNTKVDKKVEPKSCGGGGSGGGGSGGGGSGGGGSEVQLVESGGGLVQPGGSLRLSCAASGFTFSTYAMNWVRQAPGKGLEWVGRIRSKYNNYATYYADSVKGRFTISRDDSKNSLYLQMNSLKTEDTAVYYCVRHGNFGNSYVSWFAYWGQGTLVTVSSGGGGSDKTHTCPPCPAPEAAGPSVFLFPPKPKDTLMISRTPEVTCVVVDVSHEDPEVKFNWYVDGVEVHNAKTKPREEQYNSTYRVVSVLTVLHQDWLNGKEYKCKVSNKALPAPIEKTISKAKGQPREPQVYTLPPSREEMTKNQVSLWCLVKGFYPSDIAVEWESNGQPENNYKTTPPVLDSDGSFFLYSKLTVDKSRWQQGNVFSCSVMHEALHNHYTQKSLSLSPGGGGGSGGGGSGGGGSGGGGSQVQLVQSGAEVKKPGASVKVSCKASGYTFAGFEMHWVRQAPGQGLEWMGAIDPKTGGTDYNQKFKDRVTMTRDTSISTAYMELSRLRSDDTAVYYCARDLGYFDVWGQGTLVTVSS
chain 2: QVQLQQSGAELVRPGSSVKISCKASGYAFSSYWMNWVKQRPGQGLEWIGQIWPGDGDTNYNGKFKGKATLTADESSSTAYMQLSSLASEDSAVYFCARRETTTVGRYYYAMDYWGQGTTVTVSSASTKGPSVFPLAPSSKSTSGGTAALGCLVKDYFPEPVTVSWNSGALTSGVHTFPAVLQSSGLYSLSSVVTVPSSSLGTQTYICNVNHKPSNTKVDKKVEPKSCGGGGSGGGGSGGGGSGGGGSQAVVTQEPSLTVSPGGTVTLTCRSSTGAVTTSNYANWVQQKPGQAPRGLIGGTNKRAPWTPARFSGSLLGGKAALTITGAQAEDEADYYCALWYSNLWVFGGGTKLTVLGGGGSDKTHTCPPCPAPEAAGPSVFLFPPKPKDTLMISRTPEVTCVVVDVSHEDPEVKFNWYVDGVEVHNAKTKPREEQYNSTYRVVSVLTVLHQDWLNGKEYKCKVSNKALPAPIEKTISKAKGQPREPQVYTLPPSREEMTKNQVSLSCAVKGFYPSDIAVEWESNGQPENNYKTTPPVLDSDGSFFLVSKLTVDKSRWQQGNVFSCSVMHEALHNRFTQKSLSLSPGGGGGSGGGGSGGGGSGGGGSDIQMTQSPSSLSASVGDRVTITCRASQDIRSNLNWYQQKPGGAVKLLIYYTSRLHSGVPSRFSGSGSGTDYTLTISSLQPEDFATYFCQQSEKLPRTFGGGTKVEIR
chain 3: not shown
notes: CD19/CD3/CD137
Consider B1, for which, in assay [1], the concentration for a half-maximal effect (EC50) came out at 0.348 µg/mL.

B2: Ly1967 (multi-specific antibody)
chain 1: B1 chain 1
chain 2: B1 chain 2 with R575H, F576Y
chain 3: not shown
notes: CD19/CD3/CD137
B2 displayed an EC50 in assay [1] of 1.56 µg/mL.

B3: Ly2278 (bispecific antibody)
chain 1: QVQLQQSGAELVRPGSSVKISCKASGYAFSSYWMNWVKQRPGQGLEWIGQIWPGDGDTNYNGKFKGKATLTADESSSTAYMQLSSLASEDSAVYFCARRETTTVGRYYYAMDYWGQGTTVTVSSASTKGPSVFPLAPSSKSTSGGTAALGCLVKDYFPEPVTVSWNSGALTSGVHTFPAVLQSSGLYSLSSVVTVPSSSLGTQTYICNVNHKPSNTKVDKKVEPKSCGGGGSGGGGSGGGGSGGGGSEVQLVESGGGLVQPGGSLRLSCAASGFTFSTYAMNWVRQAPGKGLEWVGRIRSKYNNYATYYADSVKGRFTISRDDSKNSLYLQMNSLKTEDTAVYYCVRHGNFGNSYVSWFAYWGQGTLVTVSSGGGGSDKTHTCPPCPAPEAAGPSVFLFPPKPKDTLMISRTPEVTCVVVDVSHEDPEVKFNWYVDGVEVHNAKTKPREEQYNSTYRVVSVLTVLHQDWLNGKEYKCKVSNKALPAPIEKTISKAKGQPREPQVYTLPPSREEMTKNQVSLWCLVKGFYPSDIAVEWESNGQPENNYKTTPPVLDSDGSFFLYSKLTVDKSRWQQGNVFSCSVMHEALHNHYTQKSLSLSPG
chain 2: QVQLQQSGAELVRPGSSVKISCKASGYAFSSYWMNWVKQRPGQGLEWIGQIWPGDGDTNYNGKFKGKATLTADESSSTAYMQLSSLASEDSAVYFCARRETTTVGRYYYAMDYWGQGTTVTVSSASTKGPSVFPLAPSSKSTSGGTAALGCLVKDYFPEPVTVSWNSGALTSGVHTFPAVLQSSGLYSLSSVVTVPSSSLGTQTYICNVNHKPSNTKVDKKVEPKSCGGGGSGGGGSGGGGSGGGGSQAVVTQEPSLTVSPGGTVTLTCRSSTGAVTTSNYANWVQQKPGQAPRGLIGGTNKRAPWTPARFSGSLLGGKAALTITGAQAEDEADYYCALWYSNLWVFGGGTKLTVLGGGGSDKTHTCPPCPAPEAAGPSVFLFPPKPKDTLMISRTPEVTCVVVDVSHEDPEVKFNWYVDGVEVHNAKTKPREEQYNSTYRVVSVLTVLHQDWLNGKEYKCKVSNKALPAPIEKTISKAKGQPREPQVYTLPPSREEMTKNQVSLSCAVKGFYPSDIAVEWESNGQPENNYKTTPPVLDSDGSFFLVSKLTVDKSRWQQGNVFSCSVMHEALHNRFTQKSLSLSPG
chain 3: not shown
notes: CD19/CD3
B3 had a half-maximal effective concentration (EC50) in assay [1] of 1.46 µg/mL.

B4: Ly2600 (multi-specific antibody)
chain 1: QVQLVQSGAEVKKPGASVKVSCKASGYTFTSYVMHWVRQKPGQGLEWIGYINPYNEGTESTDKFKGRATMTSDKSTSTVYMELSSLRSEDTAVYYCASIYYGYEGTYFGVWGQGTLVTVSSASTKGPSVFPLAPSSKSTSGGTAALGCLVKDYFPEPVTVSWNSGALTSGVHTFPAVLQSSGLYSLSSVVTVPSSSLGTQTYICNVNHKPSNTKVDKKVEPKSCGGGGSGGGGSGGGGSGGGGSEVQLVESGGGLVQPGGSLRLSCAASGFTFSTYAMNWVRQAPGKGLEWVGRIRSKYNNYATYYADSVKGRFTISRDDSKNSLYLQMNSLKTEDTAVYYCVRHGNFGNSYVSWFAYWGQGTLVTVSSGGGGSDKTHTCPPCPAPELLGPSVFLFPPKPKDTLMISRTPEVTCVVVDVSHEDPEVKFNWYVDGVEVHNAKTKPREEQYNSTYRVVSVLTVLHQDWLNGKEYKCKVSNKALGAPIEKTISKAKGQPREPQVYTLPPSREEMTKNQVSLWCLVKGFYPSDIAVEWESNGQPENNYKTTPPVLDSDGSFFLYSKLTVDKSRWQQGNVFSCSVMHEALHNHYTQKSLSLSPGGGGGSGGGGSGGGGSGGGGSQVQLVQSGAEVKKPGASVKVSCKASGYTFAGFEMHWVRQAPGQGLEWMGAIDPKTGGTDYNQKFKDRVTMTRDTSISTAYMELSRLRSDDTAVYYCARDLGYFDVWGQGTLVTVSS
chain 2: QVQLVQSGAEVKKPGASVKVSCKASGYTFTSYVMHWVRQKPGQGLEWIGYINPYNEGTESTDKFKGRATMTSDKSTSTVYMELSSLRSEDTAVYYCASIYYGYEGTYFGVWGQGTLVTVSSASTKGPSVFPLAPSSKSTSGGTAALGCLVKDYFPEPVTVSWNSGALTSGVHTFPAVLQSSGLYSLSSVVTVPSSSLGTQTYICNVNHKPSNTKVDKKVEPKSCGGGGSGGGGSGGGGSGGGGSQAVVTQEPSLTVSPGGTVTLTCRSSTGAVTTSNYANWVQQKPGQAPRGLIGGTNKRAPWTPARFSGSLLGGKAALTITGAQAEDEADYYCALWYSNLWVFGGGTKLTVLGGGGSDKTHTCPPCPAPELLGPSVFLFPPKPKDTLMISRTPEVTCVVVDVSHEDPEVKFNWYVDGVEVHNAKTKPREEQYNSTYRVVSVLTVLHQDWLNGKEYKCKVSNKALGAPIEKTISKAKGQPREPQVYTLPPSREEMTKNQVSLSCAVKGFYPSDIAVEWESNGQPENNYKTTPPVLDSDGSFFLVSKLTVDKSRWQQGNVFSCSVMHEALHNHYTQKSLSLSPGGGGGSGGGGSGGGGSGGGGSDIQMTQSPSSLSASVGDRVTITCRASQDIRSNLNWYQQKPGGAVKLLIYYTSRLHSGVPSRFSGSGSGTDYTLTISSLQPEDFATYFCQQSEKLPRTFGGGTKVEIR
chain 3: EIVLTQSPATLSLSPGERATLSCRASSSVSYMHWYQQKPGQAPRPWIYATSNLASGIPARFSGSRSGTDYTLTISSLEPEDFAVYYCQQWSSNTLTFGGGTKVEIKRTVAAPSVFIFPPSDEQLKSGTASVVCLLNNFYPREAKVQWKVDNALQSGNSQESVTEQDSKDSTYSLSSTLTLSKADYEKHKVYACEVTHQGLSSPVTKSFNRGEC
notes: B7H3/CD3/CD137
In the case of B4, in assay [2], the binding result is given as “binds”.

B5: Ly2936 (multi-specific antibody)
chain 1: QVQLVQSGAEVKKPGASVKVSCKASGYTFTSYVMHWVRQKPGQGLEWIGYINPYNEGTESTDKFKGRATMTSDKSTSTVYMELSSLRSEDTAVYYCASIYYGYEGTYFGVWGQGTLVTVSSASTKGPSVFPLAPSSKSTSGGTAALGCLVKDYFPEPVTVSWNSGALTSGVHTFPAVLQSSGLYSLSSVVTVPSSSLGTQTYICNVNHKPSNTKVDKKVEPKSCGGGGSGGGGSGGGGSGGGGSEVQLVESGGGLVQPGGSLRLSCAASGFTFSTYAMNWVRQAPGKGLEWVGRIRSKYNNYATYYADSVKGRFTISRDDSKNSLYLQMNSLKTEDTAVYYCVRHGNFGNSYVSWFAYWGQGTLVTVSSGGGGSDKTHTCPPCPAPELLGPSVFLFPPKPKDTLMISRTPEVTCVVVDVSHEDPEVKFNWYVDGVEVHNAKTKPREEQYNSTYRVVSVLTVLHQDWLNGKEYKCKVSNKALGAPIEKTISKAKGQPREPQVYTLPPSREEMTKNQVSLWCLVKGFYPSDIAVEWESNGQPENNYKTTPPVLDSDGSFFLYSKLTVDKSRWQQGNVFSCSVMHEALHNHYTQKSLSLSPGKGGGGSGGGGSGGGGSGGGGSQVQLVQSGAEVKKPGASVKVSCKASGYTFAGFEMHWVRQAPGQGLEWMGAIDPKTGGTDYNQKFKDRVTMTRDTSISTAYMELSRLRSDDTAVYYCARDLGYFDVWGQGTLVTVSS
chain 2: QVQLVQSGAEVKKPGASVKVSCKASGYTFTSYVMHWVRQKPGQGLEWIGYINPYNEGTESTDKFKGRATMTSDKSTSTVYMELSSLRSEDTAVYYCASIYYGYEGTYFGVWGQGTLVTVSSASTKGPSVFPLAPSSKSTSGGTAALGCLVKDYFPEPVTVSWNSGALTSGVHTFPAVLQSSGLYSLSSVVTVPSSSLGTQTYICNVNHKPSNTKVDKKVEPKSCGGGGSGGGGSGGGGSGGGGSQAVVTQEPSLTVSPGGTVTLTCRSSTGAVTTSNYANWVQQKPGQAPRGLIGGTNKRAPWTPARFSGSLLGGKAALTITGAQAEDEADYYCALWYSNLWVFGGGTKLTVLGGGGSDKTHTCPPCPAPELLGPSVFLFPPKPKDTLMISRTPEVTCVVVDVSHEDPEVKFNWYVDGVEVHNAKTKPREEQYNSTYRVVSVLTVLHQDWLNGKEYKCKVSNKALGAPIEKTISKAKGQPREPQVYTLPPSREEMTKNQVSLSCAVKGFYPSDIAVEWESNGQPENNYKTTPPVLDSDGSFFLVSKLTVDKSRWQQGNVFSCSVMHEALHNRFTQKSLSLSPGKGGGGSGGGGSGGGGSGGGGSDIQMTQSPSSLSASVGDRVTITCRASQDIRSNLNWYQQKPGGAVKLLIYYTSRLHSGVPSRFSGSGSGTDYTLTISSLQPEDFATYFCQQSEKLPRTFGGGTKVEIR
chain 3: B4 chain 3
notes: B7H3/CD3/CD137
For the molecule B5, the binding result in assay [2] is recorded as “binds”.
